Measured values published in US20210277053A1.
Like-named read-outs stand apart in the source and are kept apart here.

Key:
Test in all cases: ELISA on immobilised human gamma globulin, anti-6-His detection; antibody-binding activity after 0.5 M NaOH, 25 C, 15 h divided by activity without alkali treatment
[1] = molecular target: gamma globulin (manufactured by The Chemo-Sero-Therapeutic Research Institute), a human antibody (human)
[2] = molecular target: gamma globulin (manufactured by The Chemo-Sero-Therapeutic Research Institute), a human antibody (human); remark: listed apart in the source
[3] = molecular target: gamma globulin (manufactured by The Chemo-Sero-Therapeutic Research Institute), a human antibody (human); remark: listed apart in the source
[4] = molecular target: gamma globulin (manufactured by The Chemo-Sero-Therapeutic Research Institute), a human antibody (human); remark: listed apart in the source

Substance | Remaining activity [%] [1] | Remaining activity [%] [2] | Remaining activity [%] [3] | Remaining activity [%] [4]
SpA5d (SpA4a with Asn11Lys) (designed binder) | 86% | 89% | 88% | –
SpA5e (SpA4a with Asn11Tyr) (designed binder) | – | 85% | – | –
SpA5f (SpA5d with Lys(Glu)58Gly) (designed binder) | – | – | 90% | –
SpA6a (SpA5d with Glu15Ala) (designed binder) | – | 86% | 91% | 83%
SpA6b (SpA6a with Lys(Glu)58Asp) (designed binder) | – | 87% | – | –
SpA6c (SpA6a with Lys(Glu)58Val) (designed binder) | – | 87% | – | –
SpA7a (SpA6a with Val40Ala) (designed binder) | – | 89% | – | –
SpA7b (SpA6a with Asn3Ile) (designed binder) | – | – | – | 88%
